From the nanobody polyreactivity screen of Harvey et al. (2022)

Test: yeast display, Sf9 membrane polyspecificity reagent, FACS + sequencing; frameworks hold sequencing errors
Procedure, shortened: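 In a synthetic yeast display library (Saccharomyces cerevisiae BJ5465), nanobody expression was induced with galactose for 36–48 hours. FACS gates were set low and high (top ~1%) using anti-HA fluorescence for expression and streptavidin fluorescence for binding of the Sf9 membrane reagent. Each polyreactivity label is drawn from the gate of origin.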

Row | Sequence | polyreactivity (PSR sort gate)
1 | QDQLVESGGGLVQAGGSLRLICAASGSNFGYYGMGWYRQAPGKEREFVAAITFSGGSTYYADSVKGRFTISRDNAKNTVYLQMNSLKPEDTAVYYFAAVYYGPYTYRHKMYYWGQGTQVTVSS | low polyreactivity
2 | QVQLVESGGGLVQAGGSLRLSCAASGITFRWYAMGWYRQAPGKERELVALIDGRGASTYADSVKGRFTISRDNAKNTVYLQMNSLKPEDTAVYYCAVAQVRVTYLWVRKFYYWGQGTQVTVSS | high polyreactivity
3 | QVQLVESGVGLVQAGGSLRLSCAASGRTFPSYNMGWYRQAPGKERELVAAITWTGGSTYYSDSVKGRFTISRDNAKNTVYLQMNSLKPEDTAVYYCATEEVYGQGNYWGQGTQVTVSS | low polyreactivity
4 | QVQLVESGGGLVQAGGSLRLSCAASGRIFYPYAMGWYRQAPGKERELVAAITWSTGRTYYADSVKGRFTISRDNAKNTVYLQMNSLKPEDTAVYYCAATGTLKRRYGYWGQGTQVTVSS | high polyreactivity
5 | KVQLVESGGGLVQAGGSLRFSCAASGSTFYIYAMGWYRPAPGKERELVATISSTGSTHYADSVKGRFTLSRDNAKNTVYLQMISLKPEDTAVYYCNPVYFGRYSRRDHWGQGTQVTVSS | high polyreactivity
6 | QVQLVESGGGLVQAGGSLRLSCAASGSIFASYVMGWYRQAPGKERELVAAITSRGTSTYYADSVKGRFTISRDNAKNTVYLHMNSLNPEDTAVYYCAARLYGSAPQHEYWGQGTQVTVSS | low polyreactivity
7 | QVQLVESGGGLVQAGGSLRLSCAASGNIFDYYAMGWYRQAPGKERELVAAISTGTSTYADSVKGRFTISRDNAKNTVYLQMNSVKPEDTAVYYCASDVGIRPLNYHPYNYWGQGTQVTVSS | low polyreactivity
8 | QVQLVESGGGLVQAGGSLRLSCAASGRIFVVNAMGWYRQAPGKERELVAAITRRGGSTYADSVKGRFTISRDNAKNTVYLQMNSLKPEDTAVYYCNAESYSGIFSYKYDYWGQGTQVTVSS | high polyreactivity
9 | QVQLVESGGGLVQAGGSLRLSCAASGRTFGLYAMGWYRQAPGKERELVAAISWGGGRTYYADSVKGRFTISRDNAKNTVYLQMNSLKPEDTAVYYCNAVYSPRYYVGGYDYWGQGTQVTVSS | high polyreactivity
10 | QVQLVESGGGLVQAGGSLRLSCAASGFIYWYAMGWSRQAPGKERELVAAITWSGGSTYADSVKGRFTISRDNAKNTVYLQMNSLKPEDTAVYYCAADKYSQWSSHTRVRYDYWGQGTQVTVSS | low polyreactivity
11 | QVQLGESGGGLVQAGGSLRLSCAASGRTFYWYDMGWYRQAPGKERELVAAITRSGGSTDYADSVKGRFTISRDNAKNTVYLQMNSLKPEDTAVYYCNADYEVSSQRPAFDYWGQGTQVTVSS | low polyreactivity
12 | QVQLVESGGGLVQAGGSLRLSCAASGRTFQINGMGWYRQAPGKERELVAAITRSGGITYYADSVKGRFTISRDNAKNTVYLQMNSLKPEDTAVYYCNADSYAYYSWYDYWGQGTQVTVSS | low polyreactivity
13 | QVQLVESGGGLVQAGGSLRLSCAASGITFRGYVMGWYRQAPGKERELVADISRRGGSTYADSVKGRFTISRDNAKNTVYLQMNSLKPEDTAVYYCNAGWRPHNLNQVGYSSYGYYYWGQGTQVTVSS | high polyreactivity
14 | QVQLVESGGGLVQAGGSLRLSCAASGRIFHLYAMGWYRQAPGKERELVATINYEGGSTYYADSVKGRFTISRDNAKDTVYLQMNSLKPEDTAVYYCAADGYQDKYYWLETWVGYWGQGTQVTVSS | low polyreactivity
15 | QVQLVESGGGLVQAGGSLRLSCAASGRIFPKYAMGWYRQAPGKERELVAAIRWSGGNTYYADSVKGRFTISRDNAKNTVYLQMNSLKPEDTAVYYCAATPYVSKYYYFGHDYWGQGTQVTVSS | high polyreactivity
16 | QGQLVESGGGLVQAGGSLRLSCAASGSSFPYYAMGWYRQAPGKERELVASINQSDGTTYYADSVKGRFSISRDNAKNTVYLQMNSLKPEDTAVYYCAADTTLQAFIRYSPIGSYDSWGQGTQVTVSS | low polyreactivity
17 | QVQLVESGGGLVQPGGSLRLSCAASGFTFSKYAMGWYRQAPGKERELVAAISRSAGSTYYADSVKGRFTISRDNAKNTVYLQMNSLKPEDTAVYYCARDNPRRPSGYNYWGQGTQVTVSS | high polyreactivity
18 | QVQLVESGGGLVQAGGSLRLSCAASGSTFFYNAMGWYRQAPGKERELVASINDRAGRTYYADSVKGRFTISRDNAKNTVYLQMNSLKPEDTAVYYCAAEPWYKFDYDYWGQGTQVTVSS | low polyreactivity
19 | QVQLVESGGGLVQAGGSLRLSCAASGFTFVINDMGWYRQAPGKERELVADITSGGDTNYADSVKGRFTISRDNAKNTVYFQMNSLKPEDTAVYYCAADIYPDWIYLLFGYWGQGTQVTVSS | low polyreactivity
20 | QVQLVESGGCLVQAGGSLRLSCAASGSTYKLNAMGWYRQAPGKEREMVAAISRGGRTNYADSVKGRFTISRDNAKNTVYFQMNSLNPEDTAVYYCAKDVAGLFHVGALYYYWGQGSQVTVSS | low polyreactivity
21 | QVQLVESGVGLVQAGGSLRLSCAASGRIFHYNAMGWYRQAPGKERELVAAISTGGSTNYADSVKGRFTISRDNAKNTVYLQMNSLKPEDTAVYYCAADRTLSYEYWGQGTQVTVSS | low polyreactivity
